Earlier results on one substance are cited in article PMC4277939.

The series concerns the target EAG channel PAS domain PAS domain (Mus musculus) (UniProt Q60603).

Usually Kd stands for the equilibrium constant for the complex coming apart. For the substance “EAG channel CNBh domain CNBh domain (from UniProt Q60603)”, the Kd was 10 µM.
